This is an account of results in patent US20080182978A1, “ANTI-NGF ANTIBODIES AND METHODS USING SAME” (RINAT NEUROSCIENCE CORP, priority 2002, published 2008).

A word on the koff: it is the rate constant with which the complex falls apart.

Assay [1] deals with T1, human NGF (Homo sapiens, UniProt P01138). Description: BIAcore screening assay of Fab library clones (koff). In kind it is binding. Particulars: Table 8: CDR L3 H3 combination mutations, H19-L129 template (H1H2L1L2 matured). Here is the method: Small scale expression in 96 wells plates was optimized for screening Fab libraries. Starting from E. coli transformed with a Fab library, colonies were picked to inoculate both a master plate (agar LB+Ampicillin (50 μg/ml)+2% Glucose) and a working plate (2 ml/well, 96 well/plate containing 1.5 mL of LB+Ampicillin (50 μg/ml)+2% Glucose). Both plates were grown at 30° C. for 8-12 hours. The master plate was stored at 4° C. and the cells from the working plate were pelleted at 5000 rpm and resuspended with 1 mL of LB+Ampicillin (50 μg/ml)+1 mM IPTG to induce expression of Fabs. Cells were harvested by centrifugation after 5 h expression time at 30° C., then resuspended in 500 μL of buffer HBS-EP ([…] buffer pH 7.4, 150 mM NaCl, 0.005% P20, 3 mM EDTA). Lysis of HBS-EP resuspended cells was attained by one cycle of freezing (−80° C.) then thawing at 37° C. Cell lysates were centrifuged at 5000 rpm for 30 min to separate cell debris from supernatants containing Fabs. The supernatants were then injected into the BIAcore plasmon resonance apparatus to obtain affinity information for each Fab. Clones expressing Fabs were rescued from the master plate to sequence the DNA and for large scale Fab production and detailed characterization as described below.
T1 sequence (P01138 122-241): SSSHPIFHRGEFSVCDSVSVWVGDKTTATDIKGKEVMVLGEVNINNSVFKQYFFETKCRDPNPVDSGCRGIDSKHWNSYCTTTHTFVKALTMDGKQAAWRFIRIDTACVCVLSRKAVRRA
(§1) Affinities of anti-NGF Fabs and monoclonal antibodies were determined using the BIAcore300™ surface plasmon resonance (SPR) system (BIAcore, INC, Piscaway N.J.). CM5 chips were activated with N-ethyl-N′-(3-dimethylaminopropyl)-carbodimide hydrochloride (EDC) and N-hydroxysuccinimide (NHS) according to the supplier's instructions. Human NGF was diluted into 10 mM sodium acetate pH 4.0 and injected over the activated chip at a concentration of 0.005 mg/mL. Using variable flow time across the individual chip channels, two ranges of antigen density were achieved: 100-200 response units (RU) for detailed kinetic studies and 500-600 RU for screening assays. The chip was blocked with ethanolamine. […] HBS-EP buffer (0.01M HEPES, pH 7.4, 0.15 NaCl, 3 mM EDTA, 0.005% Surfactant […]) was used as running buffer for all the BIAcore assays.
A screening BIAcore assay was optimized to determine the affinity of Fab clones from libraries. Supernatants of small culture lysates were injected at 50 μl/min for 2 min. Dissociation times of 10 to 15 minutes were used for determination of a single exponential dissociation rate (koff) using BIAevaluation software. […] Clones showing improved (slower) koff values were expressed at large scale and full kinetic parameters, kon and koff, were determined on purified protein. The assay was capable of detecting differences in affinity that were approximately 2-fold or larger.
For affinity screening experiments, each library was further paired with the corresponding CDR-grafted light or heavy chain (for example, the H1/H2 library was paired with CDR-grafted light chain), the antibody was expressed, and affinity to human NGF of the individual clones was screened using the BIACORE surface plasmon resonance (SPR) system (BIAcore, Inc. Piscataway, N.J.) according to the manufacturer's instructions and as described above. koff, kon and KD were determined. Antibody clones were ranked based on koff rates, since generally most variation in affinity is seen in koff rates, and further because koff rates are independent of antibody concentration.
20-80 clones from each small library were screened using BIAcore analysis as described herein. Samples were simultaneously analyzed by BIAcore for binding affinity to NGF in one channel of the BIAcore chip and for presence of Fab by binding to a penta-histag antibody in another channel of the sensor chip, to detect the his tag at the C terminus of the heavy chain. Clones that expressed protein were classified as having the same affinity, worse affinity, better affinity or no binding, using koff to classify: The results of this analysis are shown in Table 5.
On the technique in general: In SPR one partner is held on a chip, and binding of the other changes the refractive index at the surface.

Assay [2] addresses T1, human NGF. Description: BIAcore affinity determination assay (kon, koff, KD of purified Fabs). In kind it is binding. Particulars: Fab on immobilized human NGF. On the procedure:
as §1
Serial dilutions (0.1-10× estimated KD) of purified Fab samples were injected for 1 min at 100 μL/min and dissociation times of up to 2 h were allowed. The concentrations of the Fab proteins were determined by ELISA and/or SDS-PAGE electrophoresis using as a standard a Fab of known concentration (as determined by amino acid analysis). Kinetic association rates (kon) and dissociation rates (koff) were obtained simultaneously by fitting the data to a 1:1 Langmuir binding model (Karlsson, R. Roos, H. Fagerstam, L. Petersson, B. (1994). Methods Enzymology 6. 99-110) using the BIAevaluation program. Equilibrium dissociation constant (KD) values were calculated as koff/kon.
The binding affinities to human NGF of Fabs E3 and 3C were measured using BIAcore analysis according to the manufacturer's instructions and as described above, except that 100 RU NGF was used on chip to prevent a rebinding effect. Briefly, several concentrations of antibodies (Fabs) were injected for 2 minutes onto a CM5 chip with 100 RU of immobilized human NGF on it, and permitted to dissociate for 1800 seconds. Mouse antibody 911 (Fab) was analyzed as a control. Data was analyzed using BIAevaluation software following the manufacturer's instructions. E3 bound human NGF with a KD of approximately 0.07 nM (and with a kon of about 6.0e5 M-1s-1, and a koff of about 4.2e-5s-1).

For the next assay, the target named is rat NGF (Rattus norvegicus, UniProt P25427). Description: Mouse E13.5 trigeminal neuron survival assay, rat NGF. In kind it is cell-based. Conditions: 1.5 or 15 pM rat NGF. On the procedure: (§2) The ability of Fab E3 or full antibody E3 to block NGF activity was evaluated by measurement of the capacity of the antibody to inhibit NGF-dependent survival of mouse E13.5 trigeminal neurons in vitro. The trigeminal ganglion is comprised of cutaneous sensory neurons that innervate the facial region. The survival of mouse E13.5 trigeminal neurons is a sensitive assay to evaluate the NGF-blocking activity of anti-NGF antagonist antibodies because NGF is required to support survival of these neurons. For example, at saturating concentrations of NGF, the survival is close to 100% by 48 hours in culture. By contrast, less than 5% of the neurons survive by 48 hours in absence of NGF.
Chain of rat NGF (P25427 122-241): as the sequence (P01138 122-241) above, with S3T, I6V, R9M, M37T, D60A, D65E, M92T, G94D, V117A, A120G counted along it
The survival assay was conducted as follows: time-mated pregnant Swiss Webster female mice were euthanized by CO2 inhalation. The uterine horns were removed and the embryos at embryonic stage E13.5 were extracted and decapitated. The trigeminal ganglia were dissected using electrolytically sharpened tungsten needles. The ganglia were then trypsinized, mechanically dissociated and plated at a density of 200-300 cells per well in defined, serum-free medium in 96-well plates coated with poly-L-ornithine and laminin. […]

The target of assay [3] is T1, human NGF. Nature of the assay: Mouse E13.5 trigeminal neuron survival assay, human NGF. In kind it is cell-based. Particulars: 1.5 or 15 pM human NGF. Here is the method: as §2
The survival assay was conducted as follows: time-mated pregnant Swiss Webster female mice were euthanized by CO2 inhalation. The uterine horns were removed and the embryos at embryonic stage E13.5 were extracted and decapitated. The trigeminal ganglia were dissected using electrolytically sharpened tungsten needles. The ganglia were then trypsinized, mechanically dissociated and plated at a density of 200-300 cells per well in defined, serum-free medium in 96-well plates coated with poly-L-ornithine and laminin.
After 48 hours in culture, the cells were subjected to an automated immunocytochemistry protocol performed on a Biomek FX liquid handling workstation (Beckman Coulter) as follows: fixation using 4% formaldehyde, 5% sucrose, and PBS; permeabilization using 0.3% Triton X-100 in PBS); blocking of unspecific binding sites using 5% normal goat serum, 0.11% BSA in PBS; and sequential incubation with a primary and secondary antibodies to detect neurons. The primary antibody was rabbit polyclonal antibody against the protein gene product […] (PGP9.5, Chemicon), an established neuronal phenotypic marker. The secondary antibody was Alexa Fluor 488 goat anti-rabbit (Molecular Probes), together with the nuclear dye Hoechst 33342 (Molecular Probes) to label the nuclei of all the cells present in the culture. […]

B1: 3C: H19-L129 with CDR-L3 S91E, K92R and CDR-H3 Y101W, G103A (antibody, V domains shown)
VH: QVQLQESGPGLVKPSETLSLTCTVSGFSLIGYDLNWIRQPPGKGLEWIGIIWGDGTTDYNSAVKSRVTISKDTSKNQFSLKLSSVTAADTAVYYCARGGYWYATSYYFDYWGQGTLVTVS
VL: DIQMTQSPSSLSASVGDRVTITCRASQSISNNLNWYQQKPGKAPKLLIYYTSRFHSGVPSRFSGSGSGTDFTFTISSLQPEDIATYYCQQERTLPYTFGQGTKLEIKRT
Turning to B1, the koff in the assay with human NGF [1] was 1.4e-05 s⁻¹; in the assay with human NGF [2], “about 1.4E-5 s^−1”. The “blocking of rat NGF-dependent trigeminal neuron survival” value with rat NGF is “strongly blocked”. Moreover, the “blocking of human NGF-dependent trigeminal neuron survival” value in the assay with human NGF [3] is “strongly blocked”.
